Results published in patent US7078385B2, “Methods of inhibiting angiogenesis with fragments and homologs of troponin subunit I” (Boston Life Sciences, Inc., priority 1996, dated 2006).

What was measured:
[1] = tested on: capillary EC from bovine adrenal cortex, bFGF-stimulated; assay: bFGF-stimulated capillary EC proliferation (Example 8); assay type: cell-based; conditions: bFGF as mitogen
Procedure: (§1) Capillary EC, isolated from bovine adrenal cortex (Folkman, et al., 1979, Proc. Natl. Acad. Sci. USA 76, 5217–5221) were obtained from Children's Hospital (Boston, Mass.). […] Cells were maintained in culture in DME (Dulbecco's Modified Eagle's Medium, Gibco Laboratories) with 10% calf serum (Hyclone) (DME/10) supplemented with 3 ng/ml bFGF or Vascular Endothelial Growth Factor (VEGF) in preparation for these assays.
(§2) Briefly, capillary EC (2,000 cells per well) were plated on gelatinized 96-Well culture plates in DMEM supplemented with 5% (v/v) calf serum and incubated for 24 hours. On day 2, cells were treated with bFGF (Scios Nova; 1 ng/ml) and challenged with the test fractions and/or with purified TnI. For experiments in which VEGF was used as the mitogen, 800 cells per well were plated and allowed to incubate for 3 hours before VEGF (Biomedical Technologies Incorporated; 30 ng/ml) and TnI was added. Control wells contained cells alone and cells stimulated with bFGF or VEGF. On day 5, growth medium was removed from the plates; cells were lysed in buffer containing the detergent Triton x-100 and the phosphatase substrate p-nitrophenyl phosphate. […] Color development was determined using a rapid multiwell plate reader (Dynatech MR 5000) (Moses, et al., 1990, Science 2488, 1408–1410; Moses, et al., 1990, J. Cell. Biol. 119, 474–481; Connolly, et al., 1986, Anal. Biochem. 152, 136–140).

[2] = tested on: capillary EC DNA synthesis; assay: Tritiated thymidine incorporation, capillary EC DNA synthesis; assay type: cell-based, bovine; conditions: tritiated thymidine assay
Procedure: On day one, 5,000 bovine capillary endothelial cells in DMEM/10% CS/1% GPS are plated onto each well of a 96-well pregelatinized tissue culture plate. On day two, the cell media is changed to DMEM, 2% CS, 1% GPS, 0.5% BSA (complete medium), supplemented with 10 μl of 1 mg/ml “cold” thymidine per 50 ml of medium. On day three, test samples in complete medium are added in duplicate. Additionally, […] (bFGF) is added to each well except for the appropriate controls, to a final concentration of 0.2 ng/well. On day four, 5 μl of 1:13 diluted ^3H-Thymidine stock is added to each well and the plate is incubated for 5–6 hours. Following incubation, the medium is aspirated, and the remainder is rinsed once with PBS, then twice for 5 minutes each with methanol followed by two rinses each for 10 minutes with 5% TCA. The cells are then rinsed with water three times, dried to the plate, and 100 μl of 0.3 N NaOH is added to each well. The contents of the well are then transferred to the scintillation counter vials and 3 mls of Ecolume added to each vial. Samples are then counted on the scintillation counter.

[3] = tested on: bovine aortic smooth muscle cells (SMC); assay: Cell specificity: PDGF-BB-stimulated smooth muscle cell proliferation, electronic cell counting; assay type: cell-based; conditions: doses over 5× higher than the IC50 for capillary EC
Procedure: BALB/c mouse 3T3 cells were maintained in DME/10, L-glutamine(292 μg/ml) as previously described (Klagsbrun, et al., 1977, Exp. Cell Res. 105, 99–108). Bovine aortic smooth muscle cells (SMC), isolated by explant from the medial layer of bovine aortas, were obtained from Children's Hospital (Boston, Mass.). These cells were cultured in DME/10 on uncoated tissue culture plastic as previously described (D'Amore and Smith, 1993, Growth Factors 8, 61–75).
To determine whether the proliferation of bovine aortic SMC and Balb c/3T3 cells was inhibited by TnI, the following assays were conducted. SMC were plated into multiwell dishes (2.1 cm^2/well) at a density of 10,000 cells/well. After allowing the cells to attach overnight, fresh media was applied containing either 3 ng/ml PDGF-BB alone or in combination with increasing concentrations of purified TnI. Following incubation for 72 hrs at 37° C. in 10% CO2, the cells were rinsed in PBS, detached by trypsinization and counted electronically.

BALB/c mouse 3T3 cells = assay: Cell specificity: tritiated thymidine incorporation in quiescent 3T3 cells; assay type: cell-based; conditions: doses over 5× higher than the IC50 for capillary EC
[4] = tested on: embryonic neovascularization of the chick chorioallantoic membrane; assay: Chick chorioallantoic membrane (CAM) assay; assay type: in vivo; conditions: 48 h
Procedure: All procedures were carried out in a laminar flow hood under sterile conditions. The eggs were stored in a Favorite Egg Incubator (Leahy) at 37° C. and 65% relative humidity. On day 3 of development, fertilized White Leghorn eggs (SPAFAS) were cracked and the embryos removed from their shells and placed in plastic petri dishes. On day 6, test substances including native rabbit TnI (Greaser and Gergely, 1971, J. Biol. Chem. 246, 4226–4233) and recombinant human TnI and appropriate buffer controls were mixed in methylcellulose, disks and applied to the surfaces of the growing CAMs above the dense subectodermal plexus.

[5] = tested on: bFGF-induced corneal angiogenesis; assay: Mouse corneal pocket assay; assay type: in vivo, C57BL/6 mice; conditions: 50 mg/kg subcutaneous every 12 hours, sixth day of treatment
Procedure: Briefly, pellets composed of bFGF (40 ng/ml), sucrose octasulfate and Hydron were implanted into corneal micropockets of six C57BL/6 mice as previously described (U.S. Pat. No. 5,837,680 to Moses et al.). Troponin I (50 mg/kg) was administered systemically every 12 hours by subcutaneous injection. On the sixth day of treatment, corneal angiogenesis was evaluated using slit lamp microscopy and photographed.

[6] = tested on: B16-BL6 melanoma lung metastases; assay: B16-BL6 melanoma lung metastasis model; assay type: in vivo, C57BL/6 mice
Procedure: Murine melanoma B16-BL6 were cultured in RPMI 1640 (Gibco) supplemented with 10% (v/v) fetal calf serum (Hyclone), L-glutamine and NaHCO3. Cells were washed with EBSS (Gibco) and trypsinized for 3 to 5 mm with 0.25% TRL/0.2% EDTA to which culture buffer was added for washing. This preparation was then centrifuged for 10 mm at 1000 rpm, the cell pellet resuspended in fresh culture media, cell number determined using a coulter counter and cell viability determined with trypan blue (100% viability). The cell suspension was adjusted to […] for implantation. B16-BL6 cells (5×10^5/0.2 ml) were injected into the tail veins of C57BL/6 mice (approximately 6–7 weeks old). One day following tumor cell inoculation, mice were treated with rTnI systemically, twice per week, with a dose of either 1 mg/kg (n=10) or 20 mg/kg (n=10) or vehicle (150 mM NaCl, 20 mM citrate, pH3) over, a 28 day period. On day 30, animals were sacrificed, the number of lung surface metastases counted and the lungs weighed.

[7] = tested on: capillary EC from bovine adrenal cortex, VEGF-stimulated; conditions: read-out: IC50, capillary EC proliferation; VEGF as mitogen
Procedure: as §1, §2

B1: rTnI: recombinant human fast-twitch skeletal muscle troponin I expressed in E. coli, about 21 kDa (SEQ ID NO:17) (protein, listed as Homo sapiens)
chain: MGDEEKRNRAITARRQHLKSVMLQIAATELEKEESRREAEKQNYLAEHCPPLHIPGSMSEVQELCKQLHAKIDAAEEEKYDMEVRVQKTSKELEDMNQKLFDLRGKFKRPPLRRVRMSADAMLKALLGSKHKVCMDLRANLKQVKKEDTEKERDLRDVGDWRKNIEEKSGMEGRKKMFESES
- IC50 [1]: ~0.065 µM
- IC50 [2]: ~0.24 µM
- Suppression of growth of bovine aortic smooth muscle cells [3]: did not suppress the growth
- Suppression of growth of Balb/c 3T3 cells (BALB/c mouse 3T3 cells): did not suppress the growth
- Eggs with avascular zone (inhibition of embryonic neovascularization) ([4]; 130 picomoles): 66%
- Eggs with avascular zone (inhibition of embryonic neovascularization) ([4]; approximately 380 picomoles): 100%
- Inhibition of bFGF-induced corneal angiogenesis (in words) [5]: significantly inhibited
- Inhibition of lung metastases ([6]; 1 mg/kg systemically twice weekly, 28 days, day 30): 52%
- Inhibition of lung metastases ([6]; 20 mg/kg systemically twice weekly, 28 days, day 30): 64%
- Number of lung surface metastases (mean, SEM) ([6]; 20 mg/kg twice weekly, day 30): 25.0+/−7.5
- Toxicity (weight or appetite loss) ([6]; 1 or 20 mg/kg twice weekly, 28 days): no observed toxicity
- Lung weights, treated versus control groups ([6]; 1 or 20 mg/kg twice weekly, day 30): comparable
- IC50 [7]: ~0.0015 µM
